Tests used:
[1] = tested on: RELARELA (p65 homodimer) (Homo sapiens); assay: EMSA-Seq; settings: Footprinting/EMSA: 10 mM Tris pH 7.4, 75 mM NaCl, 1 mM EDTA, 1 mM DTT, 200 ug/ml BSA, 0.005% NP-40, EMSA-Seq: 12 mM HEPES pH 7.8, 75 mM KCl, 4 mM …
[2] = tested on: RELA (p65) subunit of heterodimer;p52 subunit (Homo sapiens;Homo sapiens); assay: EMSA-Seq; settings: Footprinting/EMSA: 10 mM Tris pH 7.4, 75 mM NaCl, 1 mM EDTA, 1 mM DTT, 200 ug/ml BSA, 0.005% NP-40, EMSA-Seq: 12 mM HEPES pH 7.8, 75 mM KCl, 4 mM …
[3] = tested on: RELA (p65) subunit of heterodimer;p50 subunit (Homo sapiens;Homo sapiens); assay: EMSA-Seq; settings: Footprinting/EMSA: 10 mM Tris pH 7.4, 75 mM NaCl, 1 mM EDTA, 1 mM DTT, 200 ug/ml BSA, 0.005% NP-40, EMSA-Seq: 12 mM HEPES pH 7.8, 75 mM KCl, 4 mM …
[4] = biological target: RELARELA (p65 homodimer) (Homo sapiens) (UniProt Q04206); assay: footprint; settings: UV laser footprinting: 10 mM Tris pH 7.4, 75 mM NaCl, 1 mM EDTA, 1 mM DTT, 200 ug/ml BSA, 0.005% NP-40; microarray buffer in Additional file 1 (not seen); low values mean tight binding
[5] = biological target: RELA (p65) subunit of heterodimer;p50 subunit (Homo sapiens;Homo sapiens) (UniProt Q04206+P19838); assay: footprint; settings: UV laser footprinting: 10 mM Tris pH 7.4, 75 mM NaCl, 1 mM EDTA, 1 mM DTT, 200 ug/ml BSA, 0.005% NP-40; microarray buffer in Additional file 1 (not seen); low values mean tight binding
[6] = biological target: RELA (p65) subunit of heterodimer;p52 subunit (Homo sapiens;Homo sapiens) (UniProt Q04206+Q00653); assay: footprint; settings: UV laser footprinting: 10 mM Tris pH 7.4, 75 mM NaCl, 1 mM EDTA, 1 mM DTT, 200 ug/ml BSA, 0.005% NP-40; microarray buffer in Additional file 1 (not seen); low values mean tight binding
[7] = tested on: RELARELA (p65 homodimer) (Homo sapiens); assay: UV laser footprinting; settings: Footprinting/EMSA: 10 mM Tris pH 7.4, 75 mM NaCl, 1 mM EDTA, 1 mM DTT, 200 ug/ml BSA, 0.005% NP-40, EMSA-Seq: 12 mM HEPES pH 7.8, 75 mM KCl, 4 mM …
[8] = tested on: RELA (p65) subunit of heterodimer;p52 subunit (Homo sapiens;Homo sapiens); assay: UV laser footprinting; settings: Footprinting/EMSA: 10 mM Tris pH 7.4, 75 mM NaCl, 1 mM EDTA, 1 mM DTT, 200 ug/ml BSA, 0.005% NP-40, EMSA-Seq: 12 mM HEPES pH 7.8, 75 mM KCl, 4 mM …
[9] = tested on: RELA (p65) subunit of heterodimer;p50 subunit (Homo sapiens;Homo sapiens); assay: UV laser footprinting; settings: Footprinting/EMSA: 10 mM Tris pH 7.4, 75 mM NaCl, 1 mM EDTA, 1 mM DTT, 200 ug/ml BSA, 0.005% NP-40, EMSA-Seq: 12 mM HEPES pH 7.8, 75 mM KCl, 4 mM …
[10] = tested on: RELARELA (p65 homodimer) (Homo sapiens); assay: protein binding microarray; settings: Footprinting/EMSA: 10 mM Tris pH 7.4, 75 mM NaCl, 1 mM EDTA, 1 mM DTT, 200 ug/ml BSA, 0.005% NP-40, EMSA-Seq: 12 mM HEPES pH 7.8, 75 mM KCl, 4 mM …
[11] = tested on: RELA (p65) subunit of heterodimer;p52 subunit (Homo sapiens;Homo sapiens); assay: protein binding microarray; settings: Footprinting/EMSA: 10 mM Tris pH 7.4, 75 mM NaCl, 1 mM EDTA, 1 mM DTT, 200 ug/ml BSA, 0.005% NP-40, EMSA-Seq: 12 mM HEPES pH 7.8, 75 mM KCl, 4 mM …
[12] = tested on: RELA (p65) subunit of heterodimer;p50 subunit (Homo sapiens;Homo sapiens); assay: protein binding microarray; settings: Footprinting/EMSA: 10 mM Tris pH 7.4, 75 mM NaCl, 1 mM EDTA, 1 mM DTT, 200 ug/ml BSA, 0.005% NP-40, EMSA-Seq: 12 mM HEPES pH 7.8, 75 mM KCl, 4 mM …

Chain of RELA (p65) subunit of heterodimer;p52 subunit (Homo sapiens;Homo sapiens) (UniProt Q04206+Q00653) (Q04206 1-307, chain 1 of 2): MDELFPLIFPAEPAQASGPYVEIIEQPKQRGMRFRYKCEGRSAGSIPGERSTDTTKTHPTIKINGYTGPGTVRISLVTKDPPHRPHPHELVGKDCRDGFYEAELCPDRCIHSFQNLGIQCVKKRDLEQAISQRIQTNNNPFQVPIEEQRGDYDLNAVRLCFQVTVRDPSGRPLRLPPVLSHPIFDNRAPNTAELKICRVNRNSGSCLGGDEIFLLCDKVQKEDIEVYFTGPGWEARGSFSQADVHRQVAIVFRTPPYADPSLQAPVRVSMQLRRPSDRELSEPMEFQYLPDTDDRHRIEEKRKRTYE
Chain of RELA (p65) subunit of heterodimer;p52 subunit (Homo sapiens;Homo sapiens) (UniProt Q04206+Q00653) (Q00653 4-332, chain 2 of 2): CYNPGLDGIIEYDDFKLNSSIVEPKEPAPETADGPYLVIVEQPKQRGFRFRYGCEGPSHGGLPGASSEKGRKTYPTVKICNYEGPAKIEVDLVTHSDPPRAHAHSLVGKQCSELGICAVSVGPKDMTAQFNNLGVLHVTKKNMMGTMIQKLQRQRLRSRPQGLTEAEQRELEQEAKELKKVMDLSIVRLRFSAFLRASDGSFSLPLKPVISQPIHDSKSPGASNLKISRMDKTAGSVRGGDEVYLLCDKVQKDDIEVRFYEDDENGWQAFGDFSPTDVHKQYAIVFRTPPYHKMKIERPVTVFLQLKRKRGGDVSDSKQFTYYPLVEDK
Chain of RELA (p65) subunit of heterodimer;p50 subunit (Homo sapiens;Homo sapiens) (UniProt Q04206+P19838) (Q04206 1-307, chain 1 of 2): as the sequence (Q04206 1-307, chain 1 of 2) above
Chain of RELA (p65) subunit of heterodimer;p50 subunit (Homo sapiens;Homo sapiens) (UniProt Q04206+P19838) (P19838 7-356, chain 2 of 2): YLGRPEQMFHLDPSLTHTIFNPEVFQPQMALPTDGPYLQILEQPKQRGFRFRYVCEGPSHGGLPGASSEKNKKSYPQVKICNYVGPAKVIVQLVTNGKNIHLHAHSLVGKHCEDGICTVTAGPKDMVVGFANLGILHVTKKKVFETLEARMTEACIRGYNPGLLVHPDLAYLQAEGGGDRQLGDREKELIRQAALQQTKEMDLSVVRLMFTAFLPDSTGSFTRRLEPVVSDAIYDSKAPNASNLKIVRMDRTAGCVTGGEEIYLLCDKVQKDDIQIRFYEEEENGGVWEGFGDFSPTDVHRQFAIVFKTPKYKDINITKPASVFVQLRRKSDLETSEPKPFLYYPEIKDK
Chain of RELARELA (p65 homodimer) (Homo sapiens) (UniProt Q04206) (Q04206 1-307): as the sequence (Q04206 1-307, chain 1 of 2) above

AGGAAATTCCG 11-mer in EMSA-Seq ligands
binding signal [1]: 40.9 z-score | binding signal [2]: 13 z-score | binding signal [3]: 20.4 z-score

AGGAAATTCCG (double strand)
binding signal (Kd, unit not seen) [4]: 3.25 | binding signal (Kd, unit not seen) [5]: 4.6 | binding signal (Kd, unit not seen) [6]: 1.7

AGGAAATTCCG footprint probe
Kd [7]: 3.25 nM | Kd [8]: 1.7 nM | Kd [9]: 4.6 nM

AGGAAATTCCG microarray probes
binding signal [10]: 3.7 z-score | binding signal [11]: 0.55 z-score | binding signal [12]: 1.2 z-score

AGGGGAAGTTA 11-mer in EMSA-Seq ligands
binding signal [1]: 3.78 z-score | binding signal [2]: 27.5 z-score | binding signal [3]: 35.4 z-score

AGGGGAAGTTA footprint probe
Kd [8]: 20 nM | Kd [9]: 26 nM

AGGGGGATCTG 11-mer in EMSA-Seq ligands
binding signal [2]: 18.4 z-score | binding signal [3]: 23.1 z-score

AGGGGGATCTG (double strand)
binding signal (Kd, unit not seen) [5]: 10.5 | binding signal (Kd, unit not seen) [6]: 2

AGGGGGATCTG footprint probe
Kd [8]: 2 nM | Kd [9]: 10.5 nM

AGGGGGATCTG microarray probes
binding signal [11]: 1.76 z-score | binding signal [12]: 2.39 z-score

CTGGGGATTTA 11-mer in EMSA-Seq ligands
binding signal [1]: 10.8 z-score | binding signal [2]: 19.5 z-score | binding signal [3]: 24.2 z-score

CTGGGGATTTA footprint probe
Kd [8]: 13.8 nM | Kd [9]: 16 nM
